From the supplement of paper PMC10126150 come the findings set out here.

± gives the standard deviation of the averaged measurements.
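Further: ATP exposure 15 min at 22 °C before imaging.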

The test system of the data set is ATP. The data set can be described thus: switch fluorescence ratio, 500 uM ATP over buffer (Cy3 cluster intensity, sum of 5 cycles each) (fold (ratio)); higher = stronger signal-on switching upon ATP binding; sequences stand for … in TCGTCGGCAGCGTCAGATGTGTATAAGAGACAGTTTTTTTTTTTTTTTTTTTTTTTTT…TC. The following applies: aptamer strand: ATP DNA aptamer (quencher-CACCTGGGGGAGTATTGCGGAGGAAGG + anchor), 100 nM annealed; ATP concentration: 500 uM. The gist of the method:
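Switching-strand clusters labelled with Cy3 on a modified Illumina MiSeq flow-cell were annealed to 100 nM quencher-labelled ATP aptamer, imaged in selection buffer, and re-imaged after 15 min with 500 uM ATP at 22 °C. This was done over five cycles with NaOH stripping and re-annealing in between. The fluorescence ratio is summed target-cycle over summed buffer-cycle Cy3 intensity per cluster, averaged per switch-domain sequence, excluding clusters outside 100-1000 RFU.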
With GGGGTATTGG, the switch fluorescence ratio stood at 0.993 ± 0.035.
Then TGAGGAAAGG, with 1.17 ± 0.25.
In the case of AGTCGATGTC it was 0.9763 ± 0.0039; in that of TTCGTGTACA, 1.03 ± 0.026.
GTCATCAGGT: the switch fluorescence ratio amounted to 1.008 ± 0.0058.
In the case of TTGAGGTTGT it was 0.99 ± 0.028; in that of TATTGGTTAA, 0.974 ± 0.021; in that of GGGGGCGTAT, 1.051 ± 0.0072.
Regarding TCTAAGTTGT, the switch fluorescence ratio was determined as 1.002 ± 0.0058.
Then AACTGGACTC, with 1.14 ± 0.013; and GGGAATTTTC, with 1.004 ± 0.0074; and ACTCTGTTTT, with 1.01 ± 0.012.
In the case of AGGGGATATT it was 0.996 ± 0.01; in that of CATTATGTGA, 0.987 ± 0.051; in that of AGGCACGGGG, 0.9932 ± 0.0087.
Then CGAAGAGGGA, with 0.9864 ± 0.0081; and GACGTATATT, with 1.08 ± 0.0067; and ATCGTGTGTG, with 0.991 ± 0.035.
Consider CGGGGGAAAC, for which the switch fluorescence ratio turned out to be 0.977 ± 0.015.
With TGGAATTTGG, the switch fluorescence ratio worked out at 1 ± 0.038.
Then TTTTCGAGGG, with 1.01 ± 0.023; and ACGTGTAAGC, with 1.03 ± 0.035.
In the case of ACTTGTGCTT it was 0.9728 ± 0.0027.
In the case of TGCCTAAGAT it was 1 ± 0.021.
In the case of GGTCTACATG, the switch fluorescence ratio was found to be 0.985 ± 0.0076.
In the case of GGTTTGTTGT it was 0.972 ± 0.022.
Then GGGGGTGGCG, with 0.973 ± 0.021.
Then ACGAGGTTCT, with 1.016 ± 0.003; and GTGTTGGTAG, with 0.984 ± 0.018; and AATTAGGTTT, with 1 ± 0.035.
Turning to TGATTCATTG, the switch fluorescence ratio came to 1.034 ± 0.01.
For ATGATGTATG, the switch fluorescence ratio stood at 0.989 ± 0.027.
In the case of TAAGGGGTGT it was 1.03 ± 0.027; in that of GGTCGCATTC, 1.05 ± 0.047; in that of TGCAGGGACT, 1.005 ± 0.0081.
As to GGTATCTGTA, the switch fluorescence ratio turned out to be 1 ± 0.023.
Then ATTTGTGAGG, with 0.9782 ± 0.0093.
In the case of TATGATCTAG it was 0.995 ± 0.014; in that of GGGCCCGGGT, 0.994 ± 0.037.
For the sequence CTAACGGTTT, the switch fluorescence ratio is 0.976 ± 0.028.
In the case of ATGAAGGGGA it was 1 ± 0.049; in that of TGGGGCCCGA, 1.02 ± 0.037.
In the case of ACATGGCATC it was 1.05 ± 0.046; in that of GCGGGGGTAG, 1.17 ± 0.25; in that of TTAAACTCGG, 0.998 ± 0.053.
For TACGTGGTTG, the switch fluorescence ratio turned out to be 0.99 ± 0.014.
GTCACAACGG: the switch fluorescence ratio is 0.999 ± 0.024.
With AGGTGGTTTT, the switch fluorescence ratio stood at 1.014 ± 0.0041.
In the case of AGGTCGGGCG it was 0.982 ± 0.026.
Then CGATTGCTGG, with 0.989 ± 0.069; and CCGGTCTACA, with 1.05 ± 0.047.
Then GGCAGGATAT, with 1.016 ± 0.0056.
Turning to GACGGCTGGA, the switch fluorescence ratio was 1.007 ± 0.0029.
As to CGATGGTTGA, the switch fluorescence ratio amounted to 1 ± 0.042.
In the case of AAGAACCCAG it was 1.05 ± 0.025; in that of CAGGTCGCTT, 1.01 ± 0.0019.
Then TGGTGGACGT, with 0.997 ± 0.039.
Then TTCAGACAGG, with 1.09 ± 0.02; and AATGAGGGTC, with 0.989 ± 0.11; and CAGGAACCGA, with 1.14 ± 0.017.
For TTGGCGGCTT, the switch fluorescence ratio came to 1.02 ± 0.032.
Turning to ACAGGTGGAA, the switch fluorescence ratio turned out to be 1.235 ± 0.01.
In the case of GCGTGTGGTC it was 1.02 ± 0.039; in that of TTAGTGGCTT, 0.994 ± 0.035.
In the case of TGGGGAAAGA it was 1.01 ± 0.034; in that of GTTTGAGGCT, 1 ± 0.046; in that of AAGGTATCAT, 0.978 ± 0.018.
Then CATAATTAAT, with 0.955 ± 0.023; and GTTGTATCAC, with 0.9832 ± 0.0097.
In the case of CGTGCGGCGT, the switch fluorescence ratio turned out to be 0.9829 ± 0.0026.
Then ATAGCAGAAG, with 1.06 ± 0.012; and GTTAGCACCC, with 1.04 ± 0.04; and GCGATCGGTT, with 1.01 ± 0.049.
With GGGGCGAGAG, the switch fluorescence ratio is 0.9939 ± 0.0046.
Then AAGGGGGGAT, with 0.974 ± 0.02; and CTGACCGGTC, with 1.017 ± 0.0087.
In the case of TGGCACGTAT it was 1.09 ± 0.03; in that of TTTATAGGCG, 0.987 ± 0.023.
